What all share (settings): both partners purified
The target of experiment [1] is T1, GluN2A (Rattus norvegicus, UniProt P35439;G3V9C5).
T1 construct: also called GluN2A subunit; source: HEK293S GnTI- cells/tSA201 cells, baculovirus transduction (pEG BacMam)
The experiment is described as follows: BLI; Octet RED384; mAb (25 µg/ml) captured on anti-mouse IgG Fc capture (AMC) biosensors, iGluR as analyte; TBS with 0.075% LMNG or 1 mM DDM; association 900 s, dissociation 1800 s; 1:1 model, global fit. In general terms: BLI is a label-free optical method that tracks binding on a fibre tip over time.

Experiment [2] deals with T2, GluN3A (Rattus norvegicus, UniProt P35439;Q9R1M7).
T2 construct: also called GluN3A subunit; source: HEK293S GnTI- cells/tSA201 cells, baculovirus transduction (pEG BacMam)
Described as above.

Experiment [3] concerns the target T3, TARP γ‐2 (printed accession Q71RJ2 is rat; table …, UniProt Q71RJ2).
T3 construct: TARP γ-2 (stargazin), AMPAR auxiliary subunit; also called transmembrane AMPAR regulatory protein γ-2; source: HEK293S GnTI- cells/tSA201 cells, baculovirus transduction (pEG BacMam)
In words: SEC; fluorescence-detection SEC (FSEC) shift assay; receptor incubated with mAbs individually and in combination at a 1:2 molar ratio; Superose 6 Increase 10/300 GL, 20 mM Tris, 150 mM NaCl, 0.075% LMNG. On the technique in general: In gel filtration, larger molecules generally elute earlier.

The target in experiment [4] is T4, TARP γ‐8 (Mus musculus, UniProt Q8VHW2).
T4 construct: TARP γ-8, AMPAR auxiliary subunit; also called transmembrane AMPAR regulatory protein γ-8; source: HEK293S GnTI- cells/tSA201 cells, baculovirus transduction (pEG BacMam)
In words: BLI; Octet RED384; mAb (25 µg/ml) captured on anti-mouse IgG Fc capture (AMC) biosensors, iGluR as analyte; TBS with 0.075% LMNG or 1 mM DDM; association 900 s, dissociation 1800 s; 1:1 model, global fit.

Experiment [5] deals with T5, GFP-conjugated GluN1/GluN3A receptor (Rattus norvegicus, UniProt P35439;Q9R1M7).
T5 construct: GluN1 subunit of the NMDA receptor; GluN3A subunit of the NMDA receptor; also called GluN1/GluN3A NMDAR; GluN1/N3A NMDAR; source: HEK293S GnTI- cells/tSA201 cells, baculovirus transduction (pEG BacMam); copies: 2 + 2
The experiment is described as follows: SEC; fluorescence-detection SEC (FSEC) shift assay; receptor incubated with mAbs individually and in combination at a 1:2 molar ratio; Superose 6 Increase 10/300 GL, 20 mM Tris, 150 mM NaCl, 0.075% LMNG.

Experiment [6] concerns the target T6, GluA3 AMPAR (Rattus norvegicus, UniProt P19492).
T6 construct: GluA3 subunit of the AMPA receptor; source: HEK293S GnTI- cells/tSA201 cells, baculovirus transduction (pEG BacMam)
In words: BLI; Octet RED384; mAb (25 µg/ml) captured on anti-mouse IgG Fc capture (AMC) biosensors, iGluR as analyte; TBS with 0.075% LMNG or 1 mM DDM; association 900 s, dissociation 1800 s; 1:1 model, global fit.

The target of experiment [7] is T7, GluA1 AMPAR (Rattus norvegicus, UniProt P19490-2).
T7 construct: GluA1 subunit of the AMPA receptor; source: HEK293S GnTI- cells/tSA201 cells, baculovirus transduction (pEG BacMam)
The description is as above.

Experiment [8] addresses T4, TARP γ‐8. The experiment is described as follows: SEC; fluorescence-detection SEC (FSEC) shift assay; receptor incubated with mAbs individually and in combination at a 1:2 molar ratio; Superose 6 Increase 10/300 GL, 20 mM Tris, 150 mM NaCl, 0.075% LMNG.
In experiment [9] the target is T3, TARP γ‐2. The experiment is described as follows: BLI; Octet RED384; mAb (25 µg/ml) captured on anti-mouse IgG Fc capture (AMC) biosensors, iGluR as analyte; TBS with 0.075% LMNG or 1 mM DDM; association 900 s, dissociation 1800 s; 1:1 model, global fit.
The target in experiment [10] is T8, GluA2 AMPAR (Rattus norvegicus, UniProt P19491).
T8 construct: GluA2 subunit of the AMPA receptor; source: HEK293S GnTI- cells/tSA201 cells, baculovirus transduction (pEG BacMam)
The description is as above.

The target of experiment [11] is T9, GluN1/GluN2A NMDAR (Rattus norvegicus, UniProt P35439;G3V9C5).
T9 construct: GluN1 subunit of the NMDA receptor; GluN2A subunit of the NMDA receptor; also called GluN1/N2A receptor; GluN1/N2A; source: HEK293S GnTI- cells/tSA201 cells, baculovirus transduction (pEG BacMam); copies: 2 + 2
The experiment is described as follows: SEC; fluorescence-detection SEC (FSEC) shift assay; receptor incubated with mAbs individually and in combination at a 1:2 molar ratio; Superose 6 Increase 10/300 GL, 20 mM Tris, 150 mM NaCl, 0.075% LMNG.

In experiment [12] the target is T10, GluN1 (Xenopus laevis, UniProt A0A1L8F5J9).
T10 construct: also called GluN1 subunit; source: HEK293S GnTI- cells/tSA201 cells, baculovirus transduction (pEG BacMam)
In words: BLI; Octet RED384; mAb (25 µg/ml) captured on anti-mouse IgG Fc capture (AMC) biosensors, iGluR as analyte; TBS with 0.075% LMNG or 1 mM DDM; association 900 s, dissociation 1800 s; 1:1 model, global fit.

T3 sequence (Q71RJ2 whole entry, one chain of several): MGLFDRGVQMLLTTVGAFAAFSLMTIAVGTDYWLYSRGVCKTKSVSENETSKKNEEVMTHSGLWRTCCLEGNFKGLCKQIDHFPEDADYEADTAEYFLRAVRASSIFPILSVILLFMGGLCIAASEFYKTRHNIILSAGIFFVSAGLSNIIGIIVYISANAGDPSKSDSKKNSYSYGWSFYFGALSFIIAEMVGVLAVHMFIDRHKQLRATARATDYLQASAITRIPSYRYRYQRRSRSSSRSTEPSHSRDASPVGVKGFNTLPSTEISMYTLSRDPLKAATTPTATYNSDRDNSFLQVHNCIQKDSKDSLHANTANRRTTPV

B1: 3D2 mAb (antibody, V domains shown)
VH: QVQLQQSGAELMKPGASVKISCKATGYTFRSYWIEWLKQRPGHGLEWIGEILPGSGRTNYNEKFKGKATITADTSSNTAYMQLSSLTSEDSAVYYCTRSRGTMITREFTYWGQGALVTVSA
VL: DIVLTQSPASLAVSLGQRATISCRASESVEYYGTTLMQWYQQKPGQPPKLLIYAASNVDSGVPARFSGSGSGTDFSLNIHPVEEDDIAMYFCQQSRKVPSTFGGGTKLEIK
notes: IgG1/kappa; source: mouse hybridoma, bioreactor flask; purified (Protein A/G agarose)
As usually defined, the koff is the first-order rate constant of dissociation. In general, kon refers to the second-order rate constant of association. Low readings indicate slow association, high ones fast association. For B1, in experiment [1], the koff was less than 1e-07 s⁻¹ and the kon is 1.85e+06 M⁻¹ s⁻¹.

B2: 5E3 mAb (antibody, V domains shown)
VH: QVQLQQPGAELVRPGASVKLSCKASGYSFTSYWMNWVKQRPGQGLEWIGMIHPSDSESRLNQKFKDKATLTVDKSSSTAYMQLRSPTSEDSAVYYCARSAYYRSFDYWGQGTTLTVSS
VL: DVLMTQTPLSLPVSLGDQASISCRSSQNIVHSNGNTYLEWYLQKPGQSPKLLIHKVSNRFSGVPDRFSGSGSGTDFTLKISRVEAEDLGVYYCFQGSHVPYTFGGGTKLEIK
notes: IgG1/kappa; source: purified (Protein A/G agarose)
A word on the Kd: it is the equilibrium constant for the complex coming apart. Take B2: in [2], the dissociation constant (Kd) is 1.4 nM, the off-rate constant (koff) stood at 1.99e-05 s⁻¹ and the kon worked out at 83700 M⁻¹ s⁻¹.

B3: 9B5 mAb (antibody, V domains shown)
VH: EVQLQQSGAELVRSGASVKLSCTTSGFNIKDYYMHWVKQRPEQGLEWIGWIDPENGDAEYAPKFQGKATMTADTSSNTAYLQLSSLTSEDTAVYYCNSGVAYWGQGTLVTVSA
VL: not shown
notes: IgG2a/kappa; source: mouse hybridoma, bioreactor flask; purified (Protein A/G agarose)
Turning to B3, in experiment [3], the binding result is recorded as “binds”. In [4], this molecule displayed a Kd of 3.1 nM, a koff of 0.00103 s⁻¹ and a kon of 45900 M⁻¹ s⁻¹.

B4: 3G9 mAb (antibody, V domains shown)
VH: KVQLQQSGAGLVKPGASVKLSCKASGYTFTDYIIHWIKQRSGQGLEWIGWFYPGSGSIKYNEKFKDKATLTADYSSSTVYMELSRLTSEDSAVYFCARHEHRGYYGDYPMDYWGQGTSVTVSS
VL: DIVMSQSPSSLAVSVGEKVTMSCKSSQSLLYSNNQKNYLAWYQQKPGQSPKLLIYWASTRESGVPDRFTGSGSGTDFTLTISSVKAEDLAVYYCQQYYSYPPYTFGGGTKLEIK
notes: IgG2a/kappa; source: purified (Protein A/G agarose)
On to B4, for which the binding result in [5] is reported as “binds”.

B5: 5B2 mAb (antibody, V domains shown)
VH: EVQLQESGPSLVKPSQTLSLTCSVTGDSITSGYWNWIRKFPGNKLEYMGHISYRGSTYYNPSLKSRISITRDTSKNQYYLQLNSVTTEDTATYYCASRSYDEGFDSWGQGTTLTVSS
VL: NIVLTQSPASLAVSLGQRATISCRASESLDSYGNSFMHWYQQKPGQPPKLLIYLASNLESGVPARFSGSGSRTDFTLTIDPVEADDAATYYCQQNKEDLLTFGAGTKLELK
notes: as for B1
In experiment [6], B5 yielded a Kd of less than 0.001 nM, a koff of less than 1e-07 s⁻¹ and a kon of 758000 M⁻¹ s⁻¹.

B6: 11B8 mAb (antibody, V domains shown)
VH: EVKLLESGGGLVQPGGSLKLSCAASGFDFSEYWMSWVRQAPGKGLEWIGEINPDSSSIDYTPSLKDKIIISRDNAKKTLYLQLSKVRSEDTALYYCARPRGNYVVMDYWGQGTSVTVSS
VL: NIVLTQSPASLAVSLGQRATISCRASESVDSYGSSFVHWYQQKPGQPPKLLIFLASKLESGVPARFSGSGSRTDFTLTIDPVEADDAATYYCQQTNEDPYTFGGGTKLEIK
notes: IgG2b/kappa; source: mouse hybridoma, bioreactor flask; purified (Protein A/G agarose)
Turning to B6, in experiment [7], the koff was less than 1e-07 s⁻¹ and the association rate constant (kon) was 123000 M⁻¹ s⁻¹.

B7: 2D3 mAb (antibody, V domains shown)
VH: EVQLVESGGGLVKPGGSLKLSCAASGFAFSTYDMSWVRQTPEKRLEWVAYISGGGGTTYYPGTVKGRFTISRDNAKNTLYLQMSSLKSEDTAMYYCARQGYGYSMDYWGQGTSVTVSS
VL: DVVMTQTPLSLPVSLGDQASISCRSSQSLVHSNGDTYLLWYLQKPGQSPKLLIYKVSNRFSGVPDRFSGSGSGTDFTLKISRVEAEDLGVYFCSQSTHVPRTFGGGTKLEIK
notes: IgG2b/kappa; source: purified (Protein A/G agarose)
On to B7, for which the binding result in experiment [5] is reported as “binds”.

B8: 4B2 mAb (antibody, V domains shown)
VH: EVQLQQSGAELVRSGASVKLSCTGSGFNIKDYYMHWVKQRPEQGLEWIGWIDPENGDTEYAPKFQGKATMTADTSSNTAYLHLSSLSSEDTAVYYCKGDYRYDDGGNYWGQGTSVTVSS
VL: DIQMTQTTSSLSASLGDRVTISCRASQDISNYLNWFQQKPDGTVKLLIYYTSRLHSGVPSRFSGSGSGTDYSLTINNLEQEDIATYFCQQGDSLPWTFGGGTKLEIK
notes: as for B3
Turning to B8, the binding result in experiment [8] is “binds”. In [9], this molecule gave a dissociation constant Kd of 4.5 nM, an off-rate constant (koff) of 0.000119 s⁻¹ and a kon of 50300 M⁻¹ s⁻¹.

B9: 15F1 mAb (antibody, V domains shown)
VH: QAQLKESGPGLVAPSQSLSITCTVSGFSLTNYGVHWVRQPPGKGLEWLGVIWAGGSTNYNSALMSRVSISKDNSKSQVFLKMNSLQTDDTVMYYCAREDYDYDWHFDVWGAGTTVTVSS
VL: EIQMTQTTSSLSASLGDRVTISCRASQDISNYLSWYQQKPDGTVKLLIYYTSRLHSGVPSRFSGSGSGIDYSLTINNLEQEDFATYFCQQGNTLPLTFGAGTKLELK
notes: as for B1
In the case of B9, in experiment [10], the Kd was less than 0.001 nM, the koff is less than 1e-07 s⁻¹ and the kon was determined as 1.02e+06 M⁻¹ s⁻¹.

B10: 5F11 mAb (antibody, V domains shown)
VH: QGQMQQSGAELVKPGASVKLSCKTSGFSFSTSYINWLKQKPGQSLEWIAWIYAGTDGTSYNQKFTDKAQLTVDTSSSTAYMQFSSLTTDDSAIYYCAREGIYYGNYAGFTYWGQGTLVTVSA
VL: DIVMTQSPSSLAVTAGEKVTMRCKSSQSLLWSVNQNNYLSWYQQKQGQPPKLLIYGASIRESWVPDRFTGSGSGTDFTLTISNVHAEDLAVYYCQHNHGSFLPYTFGGGTKLEIK
notes: as for B1
With B10, in experiment [11], the binding result is on record as “binds”. Moreover, in experiment [12], the dissociation constant (Kd) came to 0.43 nM, the off-rate constant (koff) was found to be 6.19e-05 s⁻¹ and the kon came to 142000 M⁻¹ s⁻¹.

Values taken from publication PMC12105683, “Generation of Conformation‐Specific Monoclonal Antibodies for Integral Membrane Proteins” (Current Protocols, 2025).
